The data set concerns the molecule itself. In words: […], pH 6.6.

The record followed here is article PMC3609069 (Prion, 2012).

B1: Nup100f-Trp-7xHis (WT) (domain or fragment)
chain: GVFGQNNNQMQINGNNNNSLFGKANTFSNSASGGLFGQNNQQQGSGLFGQNSQTSGSSGLFGQNNQKQPNTFTQSNTGIGLFGQNNNQQQQSTGLFGAKPA
B1: the binding result is “binds”.
